# According to paper PMC6981144:
# What was measured:
# [1] = molecular target: human SNAP_GLP1R (SNAP-tagged glucagon-like peptide-1 receptor) (human) (UniProt P43220); assay: fluorescent ligand labelling of cells, confocal microscopy; transiently transfected YFP-AD293-SNAP_GLP1R cells; increasing concentrations of compound applied for 60 min; control cells without GLP1R
# [2] = molecular target: human SNAP_GLP1R (SNAP-tagged glucagon-like peptide-1 receptor) (human) (UniProt P43220)
# Sequence of human SNAP_GLP1R (SNAP-tagged glucagon-like peptide-1 receptor) (human) (P43220 24-463): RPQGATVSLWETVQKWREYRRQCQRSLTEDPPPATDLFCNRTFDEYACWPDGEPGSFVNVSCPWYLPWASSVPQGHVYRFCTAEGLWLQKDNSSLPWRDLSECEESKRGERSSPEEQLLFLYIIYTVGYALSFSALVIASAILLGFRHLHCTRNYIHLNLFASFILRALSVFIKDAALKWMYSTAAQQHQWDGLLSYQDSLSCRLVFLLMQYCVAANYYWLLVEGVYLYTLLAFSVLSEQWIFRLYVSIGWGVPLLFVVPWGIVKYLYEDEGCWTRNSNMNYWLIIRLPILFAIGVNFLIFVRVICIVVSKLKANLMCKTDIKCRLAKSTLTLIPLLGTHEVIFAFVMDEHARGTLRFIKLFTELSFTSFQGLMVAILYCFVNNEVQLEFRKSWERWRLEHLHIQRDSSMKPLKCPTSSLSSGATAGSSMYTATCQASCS
Substance,concentration of maximal labelling [1] [nM],"cAMP production (EC50) in HEK293-SNAP GLP1R cells, 30 min stimulation, with the positive allosteric modulator BETP (25 µM) [2] [nM]"
LUXendin645 (peptide),250 to 500,192
LUXendin555 (peptide),600,
